Source: US20210255185A1

Experiments:
[1] = target: human survival motor neuron (SMN1) protein (human) (UniProt Q16637); test: immunofluorescence, cells transduced with AAV9-SMN1 at MOI 18750, well 1
[2] = target: human survival motor neuron (SMN1) protein (human) (UniProt Q16637); test: immunofluorescence, cells transduced with AAV9-SMN1 at MOI 18750, well 2
[3] = target: human survival motor neuron (SMN1) protein (human) (UniProt Q16637); test: immunofluorescence, cells transduced with AAV9-SMN1 at MOI 37500, well 1
[4] = target: human survival motor neuron (SMN1) protein (human) (UniProt Q16637); test: immunofluorescence, cells transduced with AAV9-SMN1 at MOI 37500, well 2
[5] = target: human survival motor neuron (SMN1) protein (human) (UniProt Q16637); test: immunofluorescence, cells transduced with AAV9-SMN1 at MOI 75000, well 1
[6] = target: human survival motor neuron (SMN1) protein (human) (UniProt Q16637); test: immunofluorescence, cells transduced with AAV9-SMN1 at MOI 75000, well 2
[7] = target: human survival motor neuron (SMN1) protein (human) (UniProt Q16637); test: immunofluorescence, cells transduced with AAV9-SMN1 at MOI 150000, well 1
[8] = target: human survival motor neuron (SMN1) protein (human) (UniProt Q16637); test: immunofluorescence, cells transduced with AAV9-SMN1 at MOI 150000, well 2
[9] = target: methyl cytosine binding protein 2 (MeCP2); test: immunofluorescence, cells transduced with AAV9-MECP2 at MOI 18750, well 1 (background level)
[10] = target: methyl cytosine binding protein 2 (MeCP2); test: immunofluorescence, cells transduced with AAV9-MECP2 at MOI 18750, well 2 (background level)
[11] = target: methyl cytosine binding protein 2 (MeCP2); test: immunofluorescence, cells transduced with AAV9-MECP2 at MOI 37500, well 1 (background level)
[12] = target: methyl cytosine binding protein 2 (MeCP2); test: immunofluorescence, cells transduced with AAV9-MECP2 at MOI 37500, well 2 (background level)
[13] = target: methyl cytosine binding protein 2 (MeCP2); test: immunofluorescence, cells transduced with AAV9-MECP2 at MOI 75000, well 1 (background level)
[14] = target: methyl cytosine binding protein 2 (MeCP2); test: immunofluorescence, cells transduced with AAV9-MECP2 at MOI 75000, well 2 (background level)
[15] = target: methyl cytosine binding protein 2 (MeCP2); test: immunofluorescence, cells transduced with AAV9-MECP2 at MOI 150000, well 1 (background level)
[16] = target: methyl cytosine binding protein 2 (MeCP2); test: immunofluorescence, cells transduced with AAV9-MECP2 at MOI 150000, well 2 (background level)
[17] = target: methyl cytosine binding protein 2 (MeCP2); test: immunofluorescence, cells transduced with AAV9-MECP2 at MOI 300000, well 1 (background level)
[18] = target: methyl cytosine binding protein 2 (MeCP2); test: immunofluorescence, cells transduced with AAV9-MECP2 at MOI 300000, well 2 (background level)
[19] = target: human survival motor neuron (SMN1) protein (human) (UniProt Q16637); test: immunofluorescence, fixed/permeabilised mTD-NPC-delta7 cells transduced with AAV9-SMN1 at MOI 300000, well 1
[20] = target: human survival motor neuron (SMN1) protein (human) (UniProt Q16637); test: immunofluorescence, fixed/permeabilised mTD-NPC-delta7 cells transduced with AAV9-SMN1 at MOI 300000, well 2

Chain of UniProt Q16637 (Q16637 2-294 limits assumed): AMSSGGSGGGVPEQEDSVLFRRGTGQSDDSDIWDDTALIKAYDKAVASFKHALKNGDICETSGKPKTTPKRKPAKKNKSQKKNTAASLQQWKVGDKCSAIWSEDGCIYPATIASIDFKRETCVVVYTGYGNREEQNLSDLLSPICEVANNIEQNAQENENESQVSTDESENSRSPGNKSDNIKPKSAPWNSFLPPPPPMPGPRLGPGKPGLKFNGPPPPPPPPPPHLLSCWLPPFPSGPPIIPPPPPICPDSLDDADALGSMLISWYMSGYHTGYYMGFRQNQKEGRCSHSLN

Substance: mouse monoclonal anti-SMN antibody (Clone 2B1)
- IFI-C (integrated fluorescent intensity per cell) [1]: 1.46e+06
- IFI-C (integrated fluorescent intensity per cell) [2]: 1.51e+06
- IFI-C (integrated fluorescent intensity per cell) [3]: 1.87e+06
- IFI-C (integrated fluorescent intensity per cell) [4]: 1.86e+06
- IFI-C (integrated fluorescent intensity per cell) [5]: 2.34e+06
- IFI-C (integrated fluorescent intensity per cell) [6]: 2.46e+06
- IFI-C (integrated fluorescent intensity per cell) [7]: 2.87e+06
- IFI-C (integrated fluorescent intensity per cell) [8]: 3.02e+06
- IFI-C (integrated fluorescent intensity per cell) [9]: 720000
- IFI-C (integrated fluorescent intensity per cell) [10]: 759000
- IFI-C (integrated fluorescent intensity per cell) [11]: 809000
- IFI-C (integrated fluorescent intensity per cell) [12]: 817000
- IFI-C (integrated fluorescent intensity per cell) [13]: 837000
- IFI-C (integrated fluorescent intensity per cell) [14]: 860000
- IFI-C (integrated fluorescent intensity per cell) [15]: 886000
- IFI-C (integrated fluorescent intensity per cell) [16]: 839000
- IFI-C (integrated fluorescent intensity per cell) [17]: 867000
- IFI-C (integrated fluorescent intensity per cell) [18]: 875000
- IFI-C (integrated fluorescent intensity per cell) [19]: 3.43e+06
- IFI-C (integrated fluorescent intensity per cell) [20]: 3.27e+06
